Reference: patent US20180194862A1 (AbbVie / Abbott, published 2018)

Key:
[1] = target: T1, mesothelin on cells (endogenous on SN12C, OVCAR3, SW1990); HEK293 cells expressing cell-surface human … (human, UniProt Q13421 296-598); assay: FACS, OVCAR3 (CA125+)
T1 construct: whole, on cells; also called cell-surface MSLN
Experimental: (§1) The binding of anti-mesothelin affinity matured variants was measured by FACS on the ovarian cancer cell line OVCAR3, the pancreatic cancer cell line SW1990, and the renal cancer cell line SN12C. Both OVCAR3 and SW1990 express CA125, but CA125 expression on SN12C cells was not detected.

[2] = target: T1, mesothelin on cells (endogenous on …); assay: FACS, SN12C (CA125-)
Experimental: as §1

[3] = target: T2, human mesothelin (human, UniProt Q13421 296-580, limits assumed); assay: SPR
T2 construct: also called Human MSLN
T2 sequence (Q13421 other isoform, or with tags, fused parts or gaps limits assumed): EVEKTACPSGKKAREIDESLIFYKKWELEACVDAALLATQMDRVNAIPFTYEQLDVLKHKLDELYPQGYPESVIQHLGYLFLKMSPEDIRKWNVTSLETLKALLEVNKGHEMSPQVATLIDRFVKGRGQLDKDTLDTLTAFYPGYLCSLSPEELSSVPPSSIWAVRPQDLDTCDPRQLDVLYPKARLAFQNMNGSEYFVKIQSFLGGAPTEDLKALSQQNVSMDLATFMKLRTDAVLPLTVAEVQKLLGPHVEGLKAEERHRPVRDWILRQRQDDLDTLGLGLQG

[4] = target: T3, cynomolgus mesothelin (cynomolgus); assay: SPR
T3 construct: also called cynoMSLN; Cyno MSLN

[5] = target: human CD40 on cells (HEK293 stable transfectants, HEK-Blue CD40 cells, human B cells, monocytic cells, … (human, UniProt P25942 21-277)); assay: cell-based or functional assay
Chain of human CD40 on cells (HEK293 stable transfectants, HEK-Blue CD40 cells, human B cells, monocytic cells, … (P25942 21-277 limits assumed): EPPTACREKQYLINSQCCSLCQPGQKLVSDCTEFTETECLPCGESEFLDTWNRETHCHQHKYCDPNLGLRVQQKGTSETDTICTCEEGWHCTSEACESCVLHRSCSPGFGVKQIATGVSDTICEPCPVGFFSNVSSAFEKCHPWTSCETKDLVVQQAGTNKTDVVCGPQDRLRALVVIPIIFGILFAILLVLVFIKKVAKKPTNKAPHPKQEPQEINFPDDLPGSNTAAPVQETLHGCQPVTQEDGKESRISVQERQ

[6] = target: T4, mouse CD40 (mouse, UniProt P27512 20-193, limits assumed); assay: FACS
T4 construct: also called murine CD40
T4 sequence (looked up): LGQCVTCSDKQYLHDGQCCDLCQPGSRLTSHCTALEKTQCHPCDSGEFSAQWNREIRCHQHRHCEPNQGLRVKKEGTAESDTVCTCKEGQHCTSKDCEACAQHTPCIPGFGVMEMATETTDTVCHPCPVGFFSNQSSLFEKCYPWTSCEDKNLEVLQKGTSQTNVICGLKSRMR

[7] = target: T5, dog CD40 (dog, UniProt Q7YRL5 21-194, limits assumed); assay: FACS
T5 sequence (looked up): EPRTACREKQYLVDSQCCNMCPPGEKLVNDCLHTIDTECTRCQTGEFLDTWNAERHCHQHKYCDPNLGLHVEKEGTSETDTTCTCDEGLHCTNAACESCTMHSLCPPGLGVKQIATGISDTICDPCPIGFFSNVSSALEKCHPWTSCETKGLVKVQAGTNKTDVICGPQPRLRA

T1 sequence (Q13421 other isoform, or with tags, fused parts or gaps limits assumed): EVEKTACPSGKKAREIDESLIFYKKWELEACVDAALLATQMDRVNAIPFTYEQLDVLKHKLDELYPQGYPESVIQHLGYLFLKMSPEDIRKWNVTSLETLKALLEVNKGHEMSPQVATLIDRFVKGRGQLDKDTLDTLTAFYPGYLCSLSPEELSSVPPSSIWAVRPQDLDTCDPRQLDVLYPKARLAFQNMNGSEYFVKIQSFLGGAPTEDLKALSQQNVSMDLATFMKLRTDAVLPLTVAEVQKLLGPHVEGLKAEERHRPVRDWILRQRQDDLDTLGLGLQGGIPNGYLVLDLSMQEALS

| Binder | EC50 [1] [µg/mL] | Maximum binding (MFI) [1] [MFI] | EC50 [2] [µg/mL] | Maximum binding (MFI) [2] [MFI] | Kd [3] [nM] | koff [3] [s⁻¹] | kon [3] [M⁻¹ s⁻¹] | Kd [4] [nM] | koff [4] [s⁻¹] | kon [4] [M⁻¹ s⁻¹] | Maximal activation (OD655) [5] [OD655] | NF-κB activation EC50, HEK293 CD40 NFκB reporter cells [5] [µg/mL] | binding result [6] | binding result [7] |
| --- | --- | --- | --- | --- | --- | --- | --- | --- | --- | --- | --- | --- | --- | --- |
| HuAM5 (antibody, V domains shown, fully human antibody) VH: EVQLVQSGAEVKKPGASVKVSCKASGDTFNRYYVHWVRQAPGQGLEWMGIINPSGVSTTYAQKFQGRVTMTRDTSTSTVYMELSSLRSEDTAVYYCAEVRGSGYNYFAMDVWGQGTLVTVSS VL: SYELTQPPSVSVSPGQTASITCSGDKLGDKYASWYQQKPGQSPVLVIYQDNRRPSGIPERFSGSNSGNTATLTISGTQAMDEADYYCQAWDSDTYVFGTGTKVTVL | 0.7 | 3690 | 0.09 | 10000 | ≤ 0.46 | ≤ 1e-05 | 23000 | 4.9 | 0.0001 | 20000 | – | – | – | – |
| HuAM16 (antibody, V domains shown, fully human antibody) VH: EVQLVQSGAEVKKPGASVKVSCKASGDTFNRYYVQWVRQAPGQGLEWMGIINPSGVSTTYAQKFQGRVTMTRDTSTSTVYMELSSLRSEDTAVYYCAETRGSGFNYFGMDVWGQGTLVTVSS VL: SYELTQPPSVSVSPGQTASITCSGDKLGDKYASWYQQKPGQSPVLVIYQDNRRPSGIPERFSGSNSGNTATLTISGTQAMDEADYYCQAWDSDTYVFGTGTKVTVL | 0.6 | 3610 | 0.08 | 9540 | 0.46 | 2.4e-05 | 52000 | 4.1 | 0.00019 | 47000 | – | – | – | – |
| huAb6-2 (antibody, human IgG1, V domains shown, human IgG1, kappa) VH: EVQLVQSGAEVKKPGSSVKVSCKASGYTFTSYWMHWVRQAPGQGLEWIGNIDPSNGETHYNQKFKDRVTITVDKSTSTAYMELSSLRSEDTAVYYCARERIYYSGSTYDGYFDVWGQGTTVTVSS VL: DIQLTQSPSFLSASVGDRVTITCSASSSLSYMHWYQQKPGKSPKRWIYDTSKLASGVPSRFSGSGSGTEYTLTISSLQPEDFATYYCQQWSSNPWTFGGGTKVEIK | – | – | – | – | – | – | – | – | – | – | 0.2 | 1.21 | no binding | no binding |
| huAb6-1 (antibody, human IgG1, V domains shown, human IgG1 heavy chain constant region, kappa light chain constant region) VH: EVQLVQSGAEVKKPGSSVKVSCKASGYTFTSYWMHWVRQAPGQGLEWIGNIDPSNGETHYNQKFKDRATLTVDKSTSTAYMELSSLRSEDTAVYYCARERIYYSGSTYDGYFDVWGQGTTVTVSS VL: DIQLTQSPSFLSASVGDRVTITCSASSSLSYMHWYQQKPGKSPKRWIYDTSKLASGVPSRFSGSGSGTEYTLTISSLQPEDFATYYCQQWSSNPWTFGGGTKVEIK | – | – | – | – | – | – | – | – | – | – | 0.26 | 1.09 | no binding | no binding |
| huAb6-3 (antibody, human IgG1, V domains shown, human IgG1, kappa) VH: EVQLVQSGAEVKKPGSSVKVSCKASGYTFTSYWMHWVRQAPGQGLEWIGNIDPSNGETHYAQKFQGRVTITVDKSTSTAYMELSSLRSEDTAVYYCARERIYYSGSTYDGYFDVWGQGTTVTVSS VL: DIQLTQSPSFLSASVGDRVTITCSASSSLSYMHWYQQKPGKSPKRWIYDTSKLASGVPSRFSGSGSGTEYTLTISSLQPEDFATYYCQQWSSNPWTFGGGTKVEIK | – | – | – | – | – | – | – | – | – | – | 0.32 | 4.31 | no binding | no binding |
| huAb9-2 (antibody, human IgG1, V domains shown, human IgG1, kappa) VH: EVQLQESGPGLVKPSETLSLTCTVSGYSITSNYYWNWIRQPPGKGLEWMGYIRYDGSNNYNPSLKNRVTISRDTSKNQFSLKLSSVTAADTAVYYCARLDYWGQGTTVTVSS VL: DAVMTQTPLSLSVTPGQPASISCRSSQSLENTNGNTFLNWFLQKPGQSPQLLIYRVSNRFSGVPDRFSGSGSGTDFTLKISRVEAEDVGVYFCLQVTHVPFTFGQGTKLEIK | – | – | – | – | – | – | – | – | – | – | 0.27 | 0.29 | no binding | no binding |
| huAb9-1 (antibody, human IgG1, V domains shown, human IgG1, kappa) VH: EVQLQESGPGLVKPSETLSLTCTVSGYSITSNYYWNWIRQPPGKGLEWMGYIRYDGSNNYNPSLKNRITISRDTSKNQFSLKLSSVTAADTAVYYCARLDYWGQGTTVTVSS VL: DAVMTQTPLSLSVTPGQPASISCRSSQSLENTNGNTFLNWFLQKPGQSPQLLIYRVSNRFSGVPDRFSGSGSGTDFTLKISRVEAEDVGVYFCLQVTHVPFTFGQGTKLEIK | – | – | – | – | – | – | – | – | – | – | 0.26 | 0.19 | no binding | no binding |
| huAb9-4 (antibody, human IgG1, V domains shown, human IgG1, kappa) VH: EVQLQESGPGLVKPSETLSLTCTVSGYSITSNYYWNWIRQPPGKGLEWMGYIRYDGSNNYNPSLKNRITISRDTSKNQFSLKLSSVTAADTAVYYCARLDYWGQGTTVTVSS VL: DAVMTQTPLSLSVTPGQPASISCRSSQSLENTNGNTFLNWYLQKPGQSPQLLIYRVSNRFSGVPDRFSGSGSGTDFTLKISRVEAEDVGVYYCLQVTHVPFTFGQGTKLEIK | – | – | – | – | – | – | – | – | – | – | 0.61 | 5.55 | no binding | no binding |
| huAb9-3 (antibody, human IgG1, V domains shown, human IgG1, kappa) VH: EVQLQESGPGLVKPSETLSLTCTVSGYSISSNYYWNWIRQPPGKGLEWMGYIRYDGSNNYNPSLKSRVTISRDTSKNQFSLKLSSVTAADTAVYYCARLDYWGQGTTVTVSS VL: DAVMTQTPLSLSVTPGQPASISCRSSQSLENTNGNTFLNWFLQKPGQSPQLLIYRVSNRFSGVPDRFSGSGSGTDFTLKISRVEAEDVGVYFCLQVTHVPFTFGQGTKLEIK | – | – | – | – | – | – | – | – | – | – | 0.27 | 0.18 | no binding | no binding |
| huAb9-6 (antibody, human IgG1, V domains shown, human IgG1, kappa) VH: EVQLQESGPGLVKPSETLSLTCTVSGYSISSNYYWNWIRQPPGKGLEWMGYIRYDGSNNYNPSLKSRVTISRDTSKNQFSLKLSSVTAADTAVYYCARLDYWGQGTTVTVSS VL: DAVMTQTPLSLSVTPGQPASISCRSSQSLENTNGNTFLNWYLQKPGQSPQLLIYRVSNRFSGVPDRFSGSGSGTDFTLKISRVEAEDVGVYYCLQVTHVPFTFGQGTKLEIK | – | – | – | – | – | – | – | – | – | – | 0.54 | 5.95 | no binding | no binding |
| huAb8-3 (antibody, human IgG1, V domains shown, human IgG1, kappa) VH: EVQLVQSGAEVKKPGSSVKVSCKASGYTFTDYYINWVRQAPGQGLEWIGWIFPGSGSVYCNEQFKGRVTITVDKSTSTAYMELSSLRSEDTAVYYCASSLGKFAYWGQGTLVTVSS VL: DIQMTQSPSSLSASVGDRVTITCKASQSVVTAVAWYQQKPGKSPKLLIYSASNRYTGVPSRFSGSGSGTDFTLTISSLQPEDFATYFCQQYSSYPYTFGGGTKVEIK | – | – | – | – | – | – | – | – | – | – | 0.46 | 0.07 | no binding | no binding |
